From the nanobody polyreactivity screen of Harvey et al. (2022)

Assay: yeast display, Sf9 membrane polyspecificity reagent, FACS + sequencing; frameworks hold sequencing errors
How it was run: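 A nanobody's polyreactivity label depends on the gate it was sorted from. Yeast display cells were stained with 10% biotinylated, detergent-solubilized Sf9 membrane reagent for 1 hour at 4 °C, enriched on streptavidin microbeads and sorted by FACS. The low and high (top ~1%) gates were set on anti-HA fluorescence for expression and streptavidin fluorescence for reagent binding.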

Sequence | polyreactivity (PSR sort gate)
QVQLVESGGGLVQAGGSLRLSCAASRSIFLYYAMGWYRQAPGKERELVAAISYSGSGTYADSVKGRFTISRDNAKNTVYLQMNSLKPEDTAVYYCNVDYGSYSYDYWGQGTQVTVSS | low polyreactivity
QVQLVESGGGLVQAGGSLRLSCAASRSIFSAYAMGWYRQAPGKERELVAAISTSGYTNYADSVKGRFTISRDNAKNTVYLQMKSLTPEDTAVYYCAADRVYGDGTAGYGYEFDYWGQVTQVTVSS | low polyreactivity
QVQLVESGGGLVQAGGSLRLSCAASRSTFFRYAMGWYRQAPGKERELVAAITWSGGSTYYADSVKGRFTISRDNAKNTVYLQMNSLKPEDTAVYYCAAPWRLFSLYDYWGQGTQVTVSS | low polyreactivity
QVQLVESGGGLVQAGGSLRLSCAASRSTFGFYAMGWYRQAPGTERELVAAISRRGGTTYYADSVKGRFTISRDIAKNTFYLQMNSLKPEDTAVYYCAARIHYYAGYDYWGQGTQVTVSS | high polyreactivity
QVQLVESGGGLVQAGGSLRLSCAASRSTFYAYALGCYRQAPGKERELVAAIDSGGSTYYADSVKGRFTISRDNAKNTVYLQMNSLKPEDTAVYYCAVRHRYTRAYWGRDYWGQGTQVTVSS | low polyreactivity
QVQLVESGGGLVQAGGSLRLSCAASRSTFYIYDMGWYRQAPGKESELVARISGSGVSTYYADSVKGRFTISRDNAKNTVYLQMNSLKPEDTAVYYSAADGISHWLYRYDYWGQGTQVTVSS | low polyreactivity
QVQLVESGGGLVQAGGSLRLSCAASRYIFDPNAMGWYRQAPGKERELVAAISGSGTSTYYADSVKGRFTISRDNAKNTVYLQMNSLKPEDTAVYYCAAAHDAGPVRYYYWGQGTQVSVSS | low polyreactivity
QVQLVESGGGLVQAGGSLRLSCAASVFIFGYNAMGWYRQAPGKERELVAAISSSGGSTYYADSVKGRFTISRDNAKNTVYLQMNSLKPEDTAVYYCAARPVALRKYDYWGQGTQVTVSS | low polyreactivity
QVQLVESGGGLVQAGGSLRLSCAASVFILRYYAMGWYRQAPGKERELVAAISYTAGSTYYADSVKGRFTISRDNAKNTVYLQMNSLKPKDTAVYYCAASYTPWRYVPRDYWGQGTQVTVSS | high polyreactivity
QVQLVESGGGLVQAGGSLRLSCAASVFIYVKYAMGWYRQAPGKERELVAAITWSTGSTYYADSVKGRFTISRDNAKNTVYLQMNSMKPEDTAVYYCNVDSAWGRRYYSSYPFYYWGQGTQVTVSS | low polyreactivity
QVQLVESGGGLVQAGGSLRLSCAASVIIFNRYAMGRYRQAPGKERELVAAISGTGASTYYADSVKGRFTISRDNAKNTVYLQMNSLKPEDTAVYYCNARKRYKSGYWGQGTQVTVSS | high polyreactivity
QVQLVESGGGLVQAGGSLRLSCAASVIIFRLYGMGWYRQAPGKEREFVATITWRGGRTNYADSVKGRFTISRDNAKNTVYLQMNSLKPQDTAVYYCAKVVRYARSNEYDSWGQGTQVTVSS | low polyreactivity
QVQLVESGGGLVQAGGSLRLSCAASVITFGYYAMGWYRQAPGKERELVAAISRRGGNTYYADSVKGRFTISRDIAKNTVYLQMNSLKPEDTAVSYCATRALYWRYGYDYWGQGTQVTVSS | high polyreactivity
QVQLVESGGGLVQAGGSLRLSCAASVITFYFNAMGWYRQAPGKERELVAVITSGGSTNYADSVKGRFTISRDNAKNTVNLQMNSLKPEDTAVYYCATDKSYSSWSAQYDYWGQGTQVTVSS | low polyreactivity
QVQLVESGGGLVQAGGSLRLSCAASVLTFSYYALGGSRPAHGTERELVAAITSSGGRTTYADSVKGRFTISRDNAKNTVYLQMNSLKPEDTAVYYCNVVRCTLKYGYWGQGTQVTVSS | high polyreactivity
QVQLVESGGGLVQAGGSLRLSCAASVRIFTRYAMGWYRPAPGKERELVAGISYRGGGTYYADSVKGRFTISRDNAKNTVYLQMNSLKPEDTAVYYCATRRYPYSLLYKYWGQGTQVTVSS | high polyreactivity
QVQLVESGGGLVQAGGSLRLSCAASVRIFWYNAMGWYRQAPGKERELVATISSSGSTNYADSVKGRFTISRDNAKNTVYLQMNSLKPEDTAVYYGAPGKTGFRYGGGDSTQEYWGQGTQVTVSS | low polyreactivity
QVQLVESGGGLVQAGGSLRLSCAASVRIIDINAMGWSRQAPRKEREFVAGITSVGSTNYADSEKGRFTISRDNAKNTDYLDMNSLKPEDTAVYYCAADTSVHSEVDYWGQGTQVTVSS | low polyreactivity
QVQLVESGGGLVQAGGSLRLSCAASVRTFNLHAMGCYTQAPGKERELFAAITRSGDSTYYADSVKGSFTISRDKAKKTVYLQMKSLKPEDTAVYYCAKDNVTTPVVKVTFIPLDYWGQGTQVTVSS | low polyreactivity
QVQLVESGGGLVQAGGSLRLSCAASVRTFYIYAMGWYRQAPGKERELDAAITWSGGTTYYADSVKGRFTISRDIAINTVYLQMNSLKPEDTAVYYCAADRYGFYLESYYCGQGTQVTVSS | low polyreactivity
QVQLVESGGGLVQAGGSLRLSCAASVRTFYRNAMGWYIQAPGKERELVAAITSGGSTYYADSVKGRFTISRDNAKNTVYLQMNSLKPEDTAVYYCAALRHALRYDYWGQGTQVTVSS | low polyreactivity

Sequence | polyreactivity (PSR sort gate)
QVQLVESGGGLVQAGGSLRLSCAASVSIFIYYAMGWYRQAQGKERELVAAISYSDGDTYYADSVKGRFTISRDNAKNTVYLQMNSLKPEDTAVYYCAAEVPQYYDVGWEDYCGQGTQVTVSS | high polyreactivity
QVQLVESGGGLVQAGGSLRLSCAASVSIFQKNARGWYRQAPGKERELVAVITRGGTSTYYADSVKGRFTISRDNAKNTVYLQMNSLKPEDTAVYDCAADSGFDTAPYDFWGQGTQVTVSS | low polyreactivity
QVQLVESGGGLVQAGGSLRLSCAASVSTFDGYAMGWYRQAPGKERELVAAISSNGGSTYYADSVKGRFTISRDNAKNTVYLQMNSLKPEDTAVYYCNTYRSTVYSWTHLLYDYWGQGTQVTVSS | low polyreactivity
QVQLVESGGGLVQAGGSLRLSCAASVSTFGDYTMGWYRQAPGKERELVAAITLTGGSTYYADSVKGRFTISRDNAKNTVYLQMNSLKPEDTAVYYCNTDVIRWVGGTWHRYYYWGQGTQVTVSS | low polyreactivity
QVQLVESGGGLVQAGGSLRLSCAASVSTFQGYSMGWYRQAPGKERELVAAITTDGDSTYYADSVKGRFTISRDNAKNTVYLQMNSLKPEDTAVYYCAADQDGRWEGSSDPGDSWGQGTQVTVSS | low polyreactivity
QVQLVESGGGLVQAGGSLRLSCAASVSTFVRYAMGWYRPAPGKDRELVAAIDGGGTTKYADSVKGRFTISRDNAKNTVYLQMNSLKTEDTAVYYCAADQVWGYDSWGQGTQVTVSS | low polyreactivity
QVQLVESGGGLVQAGGSLRLSCAASVSTFYSYAMGAYRKAPGKERELVATISTRGGSTYYADSVKGRFTISRDNAKNTVYLHMNSLKPEDTAVYYCNVRLEYRYYRGDYWGHGTQVTVSS | high polyreactivity
QVQLVESGGGLVQAGGSLRLSCAASVYTFKSYAMGWYRQAPGKERELVASISNDGSTNYADSVKGRFTISRDNAKNTVYLQMNSLKPEDTAVYYCNADFYDAPSQWARTGFDYWGQGTQVTVSS | low polyreactivity
QVQLVESGGGLVQAGGSLRLSCAATGFTFRTYAMGWYRQAPGKERELVAAITVSGGTYYADSVKGRFTITRDNAKNSFYFQMISLKPEDTAVYYCTAKRFRTGFDYWGQGTQVTVSS | low polyreactivity
QVQLVESGGGLVQAGGSLRLSCAATGGIFGYYSMGWYRQSPGKESELVAAINYSGGSTYYADSVKGRFTISRDNAKNTVYLQMNSLKPEDTAVYYCNAVVRDYTFRYYYWGQGTQVTVSS | low polyreactivity
QVQLVESGGGLVQAGGSLRLSCAATGGLFNVYVMGWYRQAPGKERELVAAITWRGGSTYYADSVKGRFTISRDNAKNTVYLQMNSLKPEDTAVYYCNADAPFQSSSDGYQVEYWGQGTQVTVSS | low polyreactivity
QVQLVESGGGLVQAGGSLRLSCAATGIIFGHYAMGWYRQAPGKERELVAAITSGGRTYYADSVKGRFTISRDNAKNTVYLQMNSLKPEDTAVYYCNVDQGYQGYLRIFDYWGQGTQVTVSS | low polyreactivity
QVQLVESGGGLVQAGGSLRLSCAATGIIFTGKSMGWYRQAPGTERELVASITSGDTTNYADSVKGRFTISRDNAKNTVYLQMNSLKPEDTAVYSCAKELQVRQGGDYWGQGTQVTVSS | low polyreactivity
QVQLVESGGGLVQAGGSLRLSCAATGIILGPYAMGWYRPAPGKERELVAAISWRGGSTYNADSVKGRFTISRDNAKNTVYLQMNSLKPEDTAVYYCATASRTSRTGWAGYYCGQGTQVTVSS | high polyreactivity
QVQLVESGGGLVQAGGSLRLSCAATGITFEGYAMGWYRQAPGKERELVAAIRSSGTSTYYADSVKGRFTISRDNAKNTVYLQMNSLKPEDTAVYYCNRARSSSRYDYCGQGTQVTVSS | low polyreactivity
QVQLVESGGGLVQAGGSLRLSCAATGITFTRYAMGWYRQAPGKEREFVAAIRRSGGNTYYADSVKGRFTISRDNAKNTVYILMNSLKPEDTAVYYCAASFRKTSPTRLVDYWGQGTQVTVSS | low polyreactivity
QVQLVESGGGLVQAGGSLRLSCAATGITFYINAMAWYIQAPGKESEFVAAIDFNTGDTYYADSVKGRFTISRDTSKNTVYLEMNRLKPEDTAVYYCAADVGYWYGYYYIYDFWAQGTQVTVSS | high polyreactivity
QVQLVESGGGLVQAGGSLRLSCAATGLFDVYAMGGYRQAPRKERELVAAISSDGSTYYADSVKGRFTISRDNAKNTVYLQMNSLKPEDTAVYYCNADTSGSPYLQGYVGYGYWGQGTQVTVSS | low polyreactivity
QVQLVESGGGLVQAGGSLRLSCAATGLIFGWYAMGWYRQAPGKERELVAAISYSGGRTYYADSVKGRFTISRDNAKNTVYLQMNSLKPEDSAVYYCAAIVLQLRGRGYEYWGQGTQVTVSS | high polyreactivity
QVQLVESGGGLVQAGGSLRLSCAATGRIFGGYPMGWYRQAPGKERELVAVISGRGGSTYYADSVKGRFTISRDNAKNTVYLQMNSLIPEDTAVYYCAAVGYYAWTFGYDYWGQGTQVTVSS | high polyreactivity
